# Columns and labels:
# [1] = biological target: b12 3–5 αIM (Homo sapiens scaffold (engineered FNfn10)) (UniProt P02751); assay: SPR
# b12 3–5 αIM H24A (human) = assay: ELISA
# b12 3–5 αIM L84A (human) = assay: ELISA
# b12 3–5 αIM F25A (human) = assay: ELISA
# Sequence of b12 3–5 αIM (Homo sapiens scaffold (engineered FNfn10)) (P02751 whole entry, looked up, stated change not applied): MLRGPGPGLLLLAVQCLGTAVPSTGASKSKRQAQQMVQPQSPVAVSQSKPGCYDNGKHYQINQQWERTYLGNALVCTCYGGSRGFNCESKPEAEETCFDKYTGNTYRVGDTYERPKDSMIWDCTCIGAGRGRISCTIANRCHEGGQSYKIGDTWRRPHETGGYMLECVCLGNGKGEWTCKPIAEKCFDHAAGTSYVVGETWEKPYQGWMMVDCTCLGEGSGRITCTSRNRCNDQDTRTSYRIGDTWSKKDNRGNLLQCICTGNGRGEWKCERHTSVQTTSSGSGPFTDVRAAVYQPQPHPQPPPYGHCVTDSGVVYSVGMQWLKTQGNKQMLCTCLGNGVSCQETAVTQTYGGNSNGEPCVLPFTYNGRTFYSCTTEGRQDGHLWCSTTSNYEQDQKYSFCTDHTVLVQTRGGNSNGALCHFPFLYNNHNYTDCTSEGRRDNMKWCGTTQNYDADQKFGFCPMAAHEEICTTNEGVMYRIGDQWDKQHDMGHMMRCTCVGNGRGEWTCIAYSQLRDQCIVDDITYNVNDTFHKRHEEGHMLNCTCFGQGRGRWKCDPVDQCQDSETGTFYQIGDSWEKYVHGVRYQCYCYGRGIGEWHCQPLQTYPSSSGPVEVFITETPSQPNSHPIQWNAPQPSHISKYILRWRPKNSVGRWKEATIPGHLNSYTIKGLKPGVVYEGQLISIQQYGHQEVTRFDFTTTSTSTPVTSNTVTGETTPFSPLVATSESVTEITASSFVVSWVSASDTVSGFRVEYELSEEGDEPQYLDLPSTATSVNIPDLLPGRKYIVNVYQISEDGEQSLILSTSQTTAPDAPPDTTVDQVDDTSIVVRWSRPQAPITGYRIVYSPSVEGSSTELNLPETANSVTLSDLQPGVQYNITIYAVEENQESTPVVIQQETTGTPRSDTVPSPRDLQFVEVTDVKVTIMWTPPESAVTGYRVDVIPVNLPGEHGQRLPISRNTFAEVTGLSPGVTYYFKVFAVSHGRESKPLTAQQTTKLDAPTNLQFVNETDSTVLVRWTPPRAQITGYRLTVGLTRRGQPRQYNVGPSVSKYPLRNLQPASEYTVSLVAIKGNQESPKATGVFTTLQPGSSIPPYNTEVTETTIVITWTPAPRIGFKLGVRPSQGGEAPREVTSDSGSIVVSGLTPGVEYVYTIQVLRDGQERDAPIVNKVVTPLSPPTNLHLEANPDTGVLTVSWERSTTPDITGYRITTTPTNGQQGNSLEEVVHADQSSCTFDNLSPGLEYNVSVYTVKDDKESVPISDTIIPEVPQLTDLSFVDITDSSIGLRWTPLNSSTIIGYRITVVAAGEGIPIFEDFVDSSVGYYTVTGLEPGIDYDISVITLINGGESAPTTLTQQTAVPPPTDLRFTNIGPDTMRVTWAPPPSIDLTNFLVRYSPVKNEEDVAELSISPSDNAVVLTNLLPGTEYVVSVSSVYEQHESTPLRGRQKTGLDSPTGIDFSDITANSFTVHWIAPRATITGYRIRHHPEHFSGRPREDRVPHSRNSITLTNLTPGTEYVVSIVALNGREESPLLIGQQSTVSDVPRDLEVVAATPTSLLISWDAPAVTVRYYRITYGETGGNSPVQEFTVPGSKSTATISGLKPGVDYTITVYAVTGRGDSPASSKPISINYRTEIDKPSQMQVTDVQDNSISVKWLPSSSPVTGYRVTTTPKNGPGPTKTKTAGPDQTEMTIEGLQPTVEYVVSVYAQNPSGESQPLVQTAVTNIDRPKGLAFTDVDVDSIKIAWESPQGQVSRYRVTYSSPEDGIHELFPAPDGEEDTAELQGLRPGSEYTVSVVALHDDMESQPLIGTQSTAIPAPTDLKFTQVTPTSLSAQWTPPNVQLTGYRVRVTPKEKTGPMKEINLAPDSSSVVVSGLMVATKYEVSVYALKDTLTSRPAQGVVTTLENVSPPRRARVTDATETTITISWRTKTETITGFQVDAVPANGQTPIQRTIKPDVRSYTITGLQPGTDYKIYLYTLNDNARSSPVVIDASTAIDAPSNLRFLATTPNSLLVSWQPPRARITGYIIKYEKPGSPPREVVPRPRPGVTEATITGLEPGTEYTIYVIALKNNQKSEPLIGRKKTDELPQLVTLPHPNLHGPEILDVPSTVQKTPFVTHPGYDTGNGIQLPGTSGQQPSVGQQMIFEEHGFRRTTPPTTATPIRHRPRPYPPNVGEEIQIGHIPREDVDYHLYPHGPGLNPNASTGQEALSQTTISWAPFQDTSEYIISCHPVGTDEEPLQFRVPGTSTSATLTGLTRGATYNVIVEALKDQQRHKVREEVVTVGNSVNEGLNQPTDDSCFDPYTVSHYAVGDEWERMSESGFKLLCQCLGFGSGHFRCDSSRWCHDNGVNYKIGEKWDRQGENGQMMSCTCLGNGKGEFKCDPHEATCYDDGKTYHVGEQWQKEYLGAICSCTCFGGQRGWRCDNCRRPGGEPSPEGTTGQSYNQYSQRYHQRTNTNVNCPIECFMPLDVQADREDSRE
Substance,Kd [1] [µM],koff [1] [s⁻¹],fold decrease of binding against wild type b12 3–5 αIM (b12 3–5 αIM H24A (human)) [fold],fold decrease of binding against wild type b12 3–5 αIM (b12 3–5 αIM L84A (human)) [fold],fold decrease of binding against wild type b12 3–5 αIM (b12 3–5 αIM F25A (human)) [fold]
b12 Fab,0.043,0.0068,–,–,–
b12 MAb (antibody),–,–,> 10,5,> 10

# Reference: article PMC4090420
